Experiments:
[1] = system: HeLa Kyoto; experiment: solubility change mitosis vs G1/S (difference of NP-40 vs SDS log2 ratios) (log2 ratio difference); higher = more soluble in mitosis
[2] = system: HeLa Kyoto; experiment: solubility in G1/S (NP-40 vs SDS abundance) (log2 ratio); higher = more soluble; details: cell cycle stage: G1/S
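For solubility change mitosis vs G1/S (difference of NP-40 vs SDS log2 ratios) in this document: synchronized HeLa Kyoto cells (double thymidine block for G1/S, nocodazole release for mitosis), protein amounts in NP-40 versus SDS lysates quantified by mass spectrometry, three biological replicates.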
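For solubility in G1/S (NP-40 vs SDS abundance) in this document: HeLa Kyoto cells arrested at G1/S by double thymidine block, proteins quantified by TMT10plex mass spectrometry in mild NP-40 versus SDS extracts, three biological replicates.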

ARNTL, sequence (chain, as listed by the source): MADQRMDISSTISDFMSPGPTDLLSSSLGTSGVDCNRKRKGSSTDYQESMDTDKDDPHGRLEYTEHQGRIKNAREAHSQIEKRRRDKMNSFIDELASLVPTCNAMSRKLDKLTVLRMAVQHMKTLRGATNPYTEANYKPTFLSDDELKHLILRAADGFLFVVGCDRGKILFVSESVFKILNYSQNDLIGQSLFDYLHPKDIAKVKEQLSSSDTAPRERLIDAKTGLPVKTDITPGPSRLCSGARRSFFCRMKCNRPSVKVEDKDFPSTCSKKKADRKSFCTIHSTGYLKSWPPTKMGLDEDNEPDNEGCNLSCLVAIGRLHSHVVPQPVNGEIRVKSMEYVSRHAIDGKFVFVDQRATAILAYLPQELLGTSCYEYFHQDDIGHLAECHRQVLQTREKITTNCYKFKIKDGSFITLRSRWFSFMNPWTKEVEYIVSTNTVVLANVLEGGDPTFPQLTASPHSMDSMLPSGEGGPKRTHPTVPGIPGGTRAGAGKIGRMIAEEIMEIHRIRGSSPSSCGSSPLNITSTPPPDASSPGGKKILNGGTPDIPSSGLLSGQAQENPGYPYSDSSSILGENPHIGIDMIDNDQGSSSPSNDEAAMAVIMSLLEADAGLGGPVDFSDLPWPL

| Substance | solubility change mitosis (log2) [1] | solubility in G1/S (log2) [2] |
| --- | --- | --- |
| MERVNDASCGPSGCYTYQVSRHSTEMLHNLNQQRKNGGRFCDVLLRVGDESFPAHRAVLAACSEYFESVFSAQLGDGGAADGGPADVGGATAAPGGGAGGSRELEMHTISSKVFGDILDFAYTSRIVVRLESFPELMTAAKFLLMRSVIEICQEVIKQSNVQILVPPARADIMLFRPPGTSDLGFPLDMTNGAALAANSNGIAGSMQPEEEAARAAGAAIAGQASLPVLPGVDRLPMVAGPLSPQLLTSPFPSVASSAPPLTGKRGRGRPRKANLLDSMFGSPGGLREAGILPCGLCGKVFTDANRLRQHEAQHGVTSLQLGYIDLPPPRLGENGLPISEDPDGPRKRSRTRKQVACEICGKIFRDVYHLNRHKLSHSGEKPYSCPVCGLRFKRKDRMSYHVRSHDGSVGKPYICQSCGKGFSRPDHLNGHIKQVHTSERPHKCQTCNASFATRDRLRSHLACHEDKVPCQVCGKYLRAAYMADHLKKHSEGPSNFCSICNRGFSSASYLKVHVKTHHGVPLPQVSRHQEPILNGGAAFHCARTYGNKEGQKCSHQDPIESSDSYGDLSDASDLKTPEKQSANGSFSCDMAVPKNKMESDGEKKYPCPECGSFFRSKSYLNKHIQKVHVRALGGPLGDLGPALGSPFSPQQNMSLLESFGFQIVQSAFASSLVDPEVDQQPMGPEGK [PATZ1] | 0.402 | -0.643 |
| MHQTLCLNPESLKMSACSDFVEHIWKPGSCKNCFCLRSDHQLVAGPPQPRAGSLPPPPRLPPRPENCRLEDEGVNSSPYSKPTIAVKPTMMSSEASDVWTEANLSAEVSQVIWRRAPGKLPLPKQEDAPVVYLGSFRGVQKPAGPSTSPDGNSRCPPAYTMVGLHNLEPRGERNIAFHPVSFPEEKAVHKEKPSFPYQDRPSTQESFRQKLAAFAGTTSGCHQGPGPLRESLPSEDDSDQRCSPSGDSEGGEYCSILDCCPGSPVAKAASQTAGSRGRHGGRDCSPTCWEQGKCSGPAEQEKRGPSFPKECCSQGPTAHPSCLGPKKLSLTSEAAISSDGLSCGSGSGSGSGASSPFVPHLESDYCSLMKEPAPEKQQDPGCPGVTPSRCLGLTGEPQPPAHPREATQPEPIYAESTKRKKAAPVPSKSQAKIEHAAAAQGQGQVCTGNAWAQKAASGWGRDSPDPTPQVSATITVMAAHPEEDHRTIYLSSPDSAVGVQWPRGPVSQNSEVGEEETSAGQGLSSRESHAHSASESKPKERPAIPPKLSKSSPVGSPVSPSAGGPPVSPLADLSDGSSGGSSIGPQPPSQGPADPAPSCRTNGVAISDPSRCPQPAASSASEQRRPRFQAGTWSRQCRIEEEEEVEQELLSHSWGRETKNGPTDHSNSTTWHRLHPTDGSSGQNSKVGTGMSKSASFAFEFPKDRSGIETFSPPPPPPKSRHLLKMNKSSSDLEKVSQGSAESLSPSFRGVHVSFTTGSTDSLASDSRTCSDGGPSSELAHSPTNSGKKLFAPVPFPSGSTEDVSPSGPQQPPPLPQKKIVSRAASSPDGFFWTQGSPKPGTASPKLNLSHSETNVHDESHFSYSLSPGNRHHPVFSSSDPLEKAFKGSGHWLPAAGLAGNRGGCGSPGLQCKGAPSASSSQLSVSSQASTGSTQLQLHGLLSNISSKEGTYAKLGGLYTQSLARLVAKCEDLFMGGQKKELHFNENNWSLFKLTCNKPCCDSGDAIYYCATCSEDPGSTYAVKICKAPEPKTVSYCSPSVPVHFNIQQDCGHFVASVPSSMLSSPDAPKDPVPALPTHPPAQEQDCVVVITREVPHQTASDFVRDSAASHQAEPEAYERRVCFLLLQLCNGLEHLKEHGIIHRDLCLENLLLVHCTLQAGPGPAPAPAPAPAPAAAAPPCSSAAPPAGGTLSPAAGPASPEGPREKQLPRLIISNFLKAKQKPGGTPNLQQKKSQARLAPEIVSASQYRKFDEFQTGILIYELLHQPNPFEVRAQLRERDYRQEDLPPLPALSLYSPGLQQLAHLLLEADPIKRIRIGEAKRVLQCLLWGPRRELVQQPGTSEEALCGTLHNWIDMKRALMMMKFAEKAVDRRRGVELEDWLCCQYLASAEPGALLQSLKLLQLL [SGK223] | -0.132 | -0.249 |
| MSTTLLSAFYDVDFLCKTEKSLANLNLNNMLDKKAVGTPVAAAPSSGFAPGFLRRHSASNLHALAHPAPSPGSCSPKFPGAANGSSCGSAAAGGPTSYGTLKEPSGGGGTALLNKENKFRDRSFSENGDRSQHLLHLQQQQKGGGGSQINSTRYKTELCRPFEESGTCKYGEKCQFAHGFHELRSLTRHPKYKTELCRTFHTIGFCPYGPRCHFIHNADERRPAPSGGASGDLRAFGTRDALHLGFPREPRPKLHHSLSFSGFPSGHHQPPGGLESPLLLDSPTSRTPPPPSCSSASSCSSSASSCSSASAASTPSGAPTCCASAAAAAAAALLYGTGGAEDLLAPGAPCAACSSASCANNAFAFGPELSSLITPLAIQTHNFAAVAAAAYYRSQQQQQQQGLAPPAQPPAPPSATLPAGAAAPPSPPFSFQLPRRLSDSPVFDAPPSPPDSLSDRDSYLSGSLSSGSLSGSESPSLDPGRRLPIFSRLSISDD [ZFP36L2] | -0.261 | 0.322 |
| MASNSSSCPTPGGGHLNGYPVPPYAFFFPPMLGGLSPPGALTTLQHQLPVSGYSTPSPATIETQSSSSEEIVPSPPSPPPLPRIYKPCFVCQDKSSGYHYGVSACEGCKGFFRRSIQKNMVYTCHRDKNCIINKVTRNRCQYCRLQKCFEVGMSKESVRNDRNKKKKEVPKPECSESYTLTPEVGELIEKVRKAHQETFPALCQLGKYTTNNSSEQRVSLDIDLWDKFSELSTKCIIKTVEFAKQLPGFTTLTIADQITLLKAACLDILILRICTRYTPEQDTMTFSDGLTLNRTQMHNAGFGPLTDLVFAFANQLLPLEMDDAETGLLSAICLICGDRQDLEQPDRVDMLQEPLLEALKVYVRKRRPSRPHMFPKMLMKITDLRSISAKGAERVITLKMEIPGSMPPLIQEMLENSEGLDTLSGQPGGGGRDGGGLAPPPGSCSPSLSPSSNRSSPATHSP [RARA] | -0.153 | 0.18 |
| MFNRAVSRLSRKRPPSDIHDSDGSSSSSHQSLKSTAKWAASLENLLEDPEGVKRFREFLKKEFSEENVLFWLACEDFKKMQDKTQMQEKAKEIYMTFLSSKASSQVNVEGQSRLNEKILEEPHPLMFQKLQDQIFNLMKYDSYSRFLKSDLFLKHKRTEEEEEDLPDAQTAAKRASRIYNT [RGS10] | 0.405 | 0.563 |
| MAAPVGPVKFWRPGTEGPGVSISEERQSLAENSGTTVVYNPYAALSIEQQRQKLPVFKLRNHILYLIENYQTVVIVGETGCGKSTQIPQYLAEAGWTAEGRVVGVTQPRRVAAVTVAGRVAEERGAVLGHEVGYCIRFDDCTDQLATRIKFLTDGMLVREMMVDPLLTKYSVIMLDEAHERTLYTDIAIGLLKKIQKKRGDLRLIVASATLDADKFRDFFNQNETSDPARDTCVILTVEGRTFPVDIFYLQSPVPDYIKSTVETVVKIHQTEGDGDVLAFLTGQEEVETVVSMLIEQARALARTGMKRHLRVLPMYAGLPSFEQMKVFERVSRSVRKVIVATNVAETSITISGIVYVIDCGFVKLRAYNPRTAIECLVVVPVSQASANQRAGRGGRSRSGKCYRLYTEEAFDKLPQSTVPEMQRSNLAPVILQLKALGIDNVLRFHFMSPPPAQSMVQALELLYALGGLDKDCRLTEPLGMRIAEFPLNPMFAKMLLESGNFGCSQEILSIAAMMQIQNIFVVPPNQKSHAIRVHRKFAVEEGDHLTMLNIYEAFIKHNKDSKWCQEHFLNYKGLVRAATVREQLKKLLVKFQVPRKSSEGDPDLVLRCIVSGFFANAARFHSTGAYRTIRDDHELHIHPASVLYAEKPPRWVIYNEVIQTSKYYMRDVTAIESAWLLELAPHFYQQGTHLSLKAKRAKVQDP [DHX35] | 0.261 | -0.538 |
| ARNTL | -0.179 | -0.0786 |
| MMPFGKISQQLCGVKKLPWSCDSRYFWGWLNAVFNKVDYDRIRDVGPDRAASEWLLRCGAMVRYHGQERWQKDYNHLPTGPLDKYKIQAIDATDSCIMSIGFDHMEGLEHVEKIRLCKCHYIEDDCLLRLSQLENLQKTILEMEIISCGNITDKGIIALRHLRNLKYLLLSDLPGVREKENLVQAFKTALPSLELKLQLK [ATP5S] | -0.136 | -0.164 |
| MPGVARLPLLLGLLLLPRPGRPLDLADYTYDLAEEDDSEPLNYKDPCKAAAFLGDIALDEEDLRAFQVQQAVDLRRHTARKSSIKAAVPGNTSTPSCQSTNGQPQRGACGRWRGRSRSRRAATSRPERVWPDGVIPFVIGGNFTGSQRAVFRQAMRHWEKHTCVTFLERTDEDSYIVFTYRPCGCCSYVGRRGGGPQAISIGKNCDKFGIVVHELGHVVGFWHEHTRPDRDRHVSIVRENIQPGQEYNFLKMEPQEVESLGETYDFDSIMHYARNTFSRGIFLDTIVPKYEVNGVKPPIGQRTRLSKGDIAQARKLYKCPACGETLQDSTGNFSSPEYPNGYSAHMHCVWRISVTPGEKIILNFTSLDLYRSRLCWYDYVEVRDGFWRKAPLRGRFCGSKLPEPIVSTDSRLWVEFRSSSNWVGKGFFAVYEAICGGDVKKDYGHIQSPNYPDDYRPSKVCIWRIQVSEGFHVGLTFQSFEIERHDSCAYDYLEVRDGHSESSTLIGRYCGYEKPDDIKSTSSRLWLKFVSDGSINKAGFAVNFFKEVDECSRPNRGGCEQRCLNTLGSYKCSCDPGYELAPDKRRCEAACGGFLTKLNGSITSPGWPKEYPPNKNCIWQLVAPTQYRISLQFDFFETEGNDVCKYDFVEVRSGLTADSKLHGKFCGSEKPEVITSQYNNMRVEFKSDNTVSKKGFKAHFFSDKDECSKDNGGCQQDCVNTFGSYECQCRSGFVLHDNKHDCKEAGCDHKVTSTSGTITSPNWPDKYPSKKECTWAISSTPGHRVKLTFMEMDIESQPECAYDHLEVFDGRDAKAPVLGRFCGSKKPEPVLATGSRMFLRFYSDNSVQRKGFQASHATECGGQVRADVKTKDLYSHAQFGDNNYPGGVDCEWVIVAEEGYGVELVFQTFEVEEETDCGYDYMELFDGYDSTAPRLGRYCGSGPPEEVYSAGDSVLVKFHSDDTITKKGFHLRYTSTKFQDTLHSRK [BMP1] | -0.301 | -0.299 |
| MAENLKGCSVCCKSSWNQLQDLCRLAKLSCPALGISKRNLYDFEVEYLCDYKKIREQEYYLVKWRGYPDSESTWEPRQNLKCVRILKQFHKDLERELLRRHHRSKTPRHLDPSLANYLVQKAKQRRALRRWEQELNAKRSHLGRITVENEVDLDGPPRAFVYINEYRVGEGITLNQVAVGCECQDCLWAPTGGCCPGASLHKFAYNDQGQVRLRAGLPIYECNSRCRCGYDCPNRVVQKGIRYDLCIFRTDDGRGWGVRTLEKIRKNSFVMEYVGEIITSEEAERRGQIYDRQGATYLFDLDYVEDVYTVDAAYYGNISHFVNHSCDPNLQVYNVFIDNLDERLPRIAFFATRTIRAGEELTFDYNMQVDPVDMESTRMDSNFGLAGLPGSPKKRVRIECKCGTESCRKYLF [SUV39H1] | -0.415 | -0.773 |
| MMFGGYETIEAYEDDLYRDESSSELSVDSEVEFQLYSQIHYAQDLDDVIREEEHEEKNSGNSESSSSKPNQKKLIVLSDSEVIQLSDGSEVITLSDEDSIYRCKGKNVRVQAQENAHGLSSSLQSNELVDKKCKSDIEKPKSEERSGVIREVMIIEVSSSEEEESTISEGDNVESWMLLGCEVDDKDDDILLNLVGCENSVTEGEDGINWSISDKDIEAQIANNRTPGRWTQRYYSANKNIICRNCDKRGHLSKNCPLPRKVRRCFLCSRRGHLLYSCPAPLCEYCPVPKMLDHSCLFRHSWDKQCDRCHMLGHYTDACTEIWRQYHLTTKPGPPKKPKTPSRPSALAYCYHCAQKGHYGHECPEREVYDPSPVSPFICYYDDKYEIQEREKRLKQKIKVLKKNGVIPEPSKLPYIKAANENPHHDIRKGRASWKSNRWPQENKETQKEMKNKNRNWEKHRKADRHREVDEDFPRGPKTYSSPGSFKTQKPSKPFHRSSHYHTSREDKSPKEGKRGKQKKKERCWEDDDNDNLFLIKQRKKKS [ZCCHC7] | 0.926 | -2.02 |

Source: the supplement of paper PMC5998384
